Test results: publication PMC11327358 (Nature Communications, 2024)

What was measured:
[1] = biological target: S2A5-L1^A (S2A5 with alanine substitution in light chain region 26-30C) (mouse | human); experiment: BLI
[2] = biological target: GTV Gn head domain (residues 19-337) (Guertu virus (GTV), GenBank KT328592.1, UniProt A0A0S2Z2X2); experiment: ELISA

Molecule “SFTSV Gn head domain protein (residues 20-340, strain WCH97, genotype A) (domain or fragment)” has a fold decrease of binding affinity against WT S2A5 [1] of 11 fold.

B1: mAb N1D10 (mouse variable regions on human IgG1) (antibody, V domains shown)
VH: EVKLVESGGGLVQPGGSLKLSCAASGFTFSTYTMSWVRQTPEKRLEWVAYISNGGGSTYYPDTVKGRFTISRDNAKNTLYLQMSSLNSEDTAMYYCARSYGNFDVWGAGTTVTVSS
VL: DVVMTQTPLSLPVSFGDQVSISCRSSQSLANSYGNTYLSWYLHKPGQSPQLLIYGISKRFSGVPDRFSGSGSGTDFTLKISTIKPEDLGMYYCLQGTHQPWTFGGGTKLEIK
B1: binds [2].

B2: mAb B1G11 (mouse variable regions on human IgG1) (antibody, V domains shown)
VH: EVKLMESGGGLVQPGDSLRLSCAISGFTFSDYYMSWVRQPPGKALEWLGFIRNKAKGYTTEYSASVKGRFTISRDNSQSILYLQMNTLRAEDSATYYCARDYRYDDEYYYAMDYWGQGTSVTVSS
VL: GVVMTQTTSSLSASLGDRVTISCSASQGISNYLNWYQQKPDGTVKLLIYYTSILHSGVPSRFSGSGSGTDYSLTISNLEPEDIATYYCQQYSKFPRTFGGGTKLEIK
B2: binds [2].

B3: mAb S2A5 (mouse variable regions on human IgG1) (antibody, V domains shown)
VH: EVQLQQSGPELVKPGASVKVSCKASGYSFSDDNMYWVKQSHGKSLEWIGYIDPDNGGTSYNQKFKGKATLTVDKSSSTAFMHLNSLTSEDSAVYYCAREDYYGSRAMDYWGQGTSVTVSS
VL: DIVLTQSPASLAVSLGQRATISCKASQSVDYAGDSYMNWYQQKPGQPPKLLIYAASNLESAIPARFSGSGSGTDFTLNIHPVQEEDAATYYCQQSYEDPRTFGGGTKLEIK
B3: binds [2].
